# ChEMBL document CHEMBL2074194
# B1: Solute carrier family 22 member 2 (Rattus norvegicus) (protein)
# chain: MSTVDDILEHIGEFHLFQKQTFFLLALLSGAFTPIYVGIVFLGFTPDHHCWSPGAAKLSQRCGWSQAEELNYTVPGLGPSDEASFLSQCMRYEVDWNQSTLDCVDPLSSLAADRNQLPLGPCEHGWVYNTPGSSIVTEFNLVCAHSWMLDLFQSVVNVGFFIGAMMIGYLADRFGRKFCLLVTILINAISGALMAISPNYAWMLVFRFLQGLVSKAGWLIGYILITEFVGLGYRRMVGICYQIAFTVGLLILAGVAYVIPNWRWLQFAVTLPNFCFLLYFWCIPESPRWLISQNKIVKAMKIIKHIAKKNGKSVPVSLQNLTPDEDAGKKLNPSFLDLVRTPQIRKHTLILMYNWFTSSVLYQGLIMHMGLAGDNIYLDFFYSALVEFPAAFIIILTIDRVGRRYPWAVSNMVAGAACLASVFIPDDLQWLKITIACLGRMGITMAYEMVCLVNAELYPTYIRNLGVLVCSSMCDIGGIITPFLVYRLTDIWMEFPLVVFAVVGLVAGALVLLLPETKGKALPETIEDAENMQRPRKKKEKRIYLQVKQADRPLS
# Tests used:
# [1] = substrate: CC[N+](CC)(CC)CC; assay: cells, lysate or membranes named
# [2] = substrate: C[N+](C)(C)CCO; assay: cells, lysate or membranes named
protein,measurement,setting,value
B1,Km,[1],160 µM
same,Km,[2],2000 µM
